# Data from US20060148017A1 (published 2006).
# Numbering of substitutions follows the chain as printed.
# T1: Zip4S
# T1 sequence: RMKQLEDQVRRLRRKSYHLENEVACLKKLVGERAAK
# T2: Zip 1
# T2 sequence: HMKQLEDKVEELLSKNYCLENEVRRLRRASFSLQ
# T3: Zip 2
# T3 sequence: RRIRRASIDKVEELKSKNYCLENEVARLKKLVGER
# T4: Zip4T
# T4 sequence: T1 sequence with S16T
# Experiments:
# Zip4S = tested on: T1, Zip4S
# Zip 1 = tested on: T2, Zip 1
# Zip 2 = tested on: T3, Zip 2
# Zip4T = tested on: T4, Zip4T
# [1] = target: the molecule itself; experiment: circular dichroism thermal denaturation (self-association of unmodified Zip4S is implied)
# Protocol: The circular dichroism (measured in units of ellipticity) of proteins at 222 nm provides a measure of the amount of α-helix present in the structure, with a large, negative ellipticity indicting a high level of helicity. […] In all experiments described herein, peptide concentration was determined by tyrosine absorbance at 280 nm in 6M GuHCl.
molecule,measurement,setting,value
Ca2+/Calmodulin-dependent Protein Kinase (CaMKII),timecourse of phosphorylation (32P incorporation),Zip4S,CaMKII was unable to phosphorylate Zip4S
protein kinase A (PKA),phosphorylation by reverse-phase HPLC and radioactive assay,Zip 1,The peptides were both shown to be good substrates for PKA by reverse-phase HPLC and radioactive assay
same,phosphorylation by reverse-phase HPLC and radioactive assay,Zip 2,The peptides were both shown to be good substrates for PKA by reverse-phase HPLC and radioactive assay
same,timecourse of phosphorylation (32P incorporation),Zip4T,"Zip4T is also phosphorylated, but at a slower rate, with full phosphorylation achieved in 30 minutes in this assay"
RMKQLEDQVRRLRRKSYHLENEVACLKKLVGERAAK (GCN4 numbering)) [Zip4S],binding result,[1],binds
